In experiment [1] the target is ΔM-N L-selectin–GFP (human) (UniProt P14151). Put plainly: FRET or BRET; FLIM measurement of FRET between GFP (donor, on L-selectin) and RFP (on the ERM protein); unchallenged THP-1 cells seeded onto poly-L-lysine-coated coverslips for 10 min at 37°C, fixed. For orientation: Bioluminescence resonance energy transfer reports proximity on the nanometre scale.
The target is the same in experiment [2]. As to the kind of experiment: FRET or BRET; FLIM measurement of FRET; THP-1 cells perfused over TNF-activated HUVECs, fixed in 4% PFA at 6 min (early TEM); optical section above the endothelium (top, non-transmigrated uropods).
The target is the same in experiment [3]. Put plainly: FRET or BRET; FLIM measurement of FRET; THP-1 cells perfused over TNF-activated HUVECs, fixed in 4% PFA at 25 min (late TEM); optical section below the endothelium (base, transmigrated pseudopods).
Experiment [4] shares this target. Put plainly: FRET or BRET; FLIM measurement of FRET; THP-1 cells perfused over TNF-activated HUVECs, fixed in 4% PFA at 6 min (early TEM); optical section below the endothelium (base, transmigrated pseudopods).
The target is the same in experiment [5]. Put plainly: FRET or BRET; FLIM measurement of FRET; THP-1 cells perfused over TNF-activated HUVECs, fixed in 4% PFA at 25 min (late TEM); optical section above the endothelium (top, non-transmigrated uropods).

Sequence of UniProt P14151 (P14151 39-372, stated change not applied): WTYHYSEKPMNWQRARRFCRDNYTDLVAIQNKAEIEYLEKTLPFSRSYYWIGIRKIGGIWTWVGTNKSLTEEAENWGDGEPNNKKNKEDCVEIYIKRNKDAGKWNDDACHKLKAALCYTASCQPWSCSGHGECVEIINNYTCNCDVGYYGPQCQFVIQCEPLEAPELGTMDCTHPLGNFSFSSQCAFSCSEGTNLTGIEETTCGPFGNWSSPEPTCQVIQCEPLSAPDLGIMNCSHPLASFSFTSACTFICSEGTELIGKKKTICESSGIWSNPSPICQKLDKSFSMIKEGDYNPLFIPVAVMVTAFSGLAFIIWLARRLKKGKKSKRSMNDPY

On to “ezrin–RFP (from UniProt P15311 1-586) (natural protein)”, for which the fold FRET efficiency against moesin with the same L-selectin (unchallenged cells) in experiment [1] was determined as 3.2 fold. In addition, in experiment [2], the FRET efficiency (uropods, 6 min) was 6.5%. Moreover, in experiment [3], the FRET efficiency (pseudopods, 25 min) was 6.5%. The substance further had an FRET efficiency (pseudopods, 6 min) in experiment [4] of 7.1%. The substance also displayed an FRET efficiency (uropods, 25 min) in experiment [5] of 7%.

In the case of “moesin–RFP (from UniProt P26041 1-577) (natural protein)”, in experiment [2], the FRET efficiency (uropods, 6 min) turned out to be 2.7%. The FRET efficiency (pseudopods, 25 min) in experiment [3] amounted to 4.2%. In experiment [4], this substance yielded an FRET efficiency (pseudopods, 6 min) of 2.4%. Moreover, in experiment [5], the FRET efficiency (uropods, 25 min) was 2%.
